Results on 2 substances are retold here after US20090142345A1.

Assay [1] deals with human DDR1b protein (Discoidin Domain Receptor 1, isoform b) (human) (UniProt Q08345). Put plainly: cell-based or functional assay.
In assay [2] the target is DDR1bDN protein (dominant negative type DDR1b not having kinase activity) (human) (UniProt Q08345). In words: cell-based or functional assay.

As for “non-immunized rabbit IgG (Jackson Immunoresearch Company) (antibody)”, in assay [1], the cell protection inhibitory activity at 33 µg/mL, relative to the change induced by type IV collagen as 100%, HCT116 cells (Caspase-Glo 3/7 Assay) came out at 0% and the cell protection inhibitory activity at 1 mg/mL, relative to the absorbance change induced by type IV collagen as 100%, DDR1FL-#117 cells is 1.7%.

“type IV collagen (Sigma Company) (ligand)” came in with a suppression of serum-removal-induced apoptosis by addition of type IV collagen in DDR1bDN-#206 cells (Cell Death Detection ELISA) in assay [2] of 34%. Moreover, the suppression of serum-removal-induced apoptosis by addition of type IV collagen in DDR1FL-#117 cells (Cell Death Detection ELISA) in assay [1] is 53%.
